Assay results reported in US20240034757A1 (OXFORD UNIVERSITY INNOVATION, published 2024).
Residue numbers refer to the chain shown, from its start. Names and notes keep the numbering of the source.

How the values were obtained:
Test in all cases: BLI [Cont.) C]
[1] = molecular target: T1, CXCL13_HUMAN (human, UniProt O43927 23-109)
T1 sequence: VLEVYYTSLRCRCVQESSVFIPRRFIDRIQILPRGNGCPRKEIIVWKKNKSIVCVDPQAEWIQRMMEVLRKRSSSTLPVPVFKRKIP

[2] = molecular target: T2, CXCL6_HUMAN (human, UniProt P80162 38-114)
T2 sequence: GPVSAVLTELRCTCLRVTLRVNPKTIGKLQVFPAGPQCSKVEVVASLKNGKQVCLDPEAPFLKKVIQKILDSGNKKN

[3] = molecular target: T3, CXCL11_HUMAN (human, UniProt O14625 22-94)
T3 sequence: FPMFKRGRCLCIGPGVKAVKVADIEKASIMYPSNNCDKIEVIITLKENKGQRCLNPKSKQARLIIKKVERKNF

[4] = molecular target: T4, CXCL3_HUMAN (human, UniProt P19876 35-107)
T4 sequence: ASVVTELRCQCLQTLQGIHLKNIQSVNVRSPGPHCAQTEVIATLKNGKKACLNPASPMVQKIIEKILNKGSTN

[5] = molecular target: T5, CXCL2_HUMAN (human, UniProt P19875 35-107)
T5 sequence: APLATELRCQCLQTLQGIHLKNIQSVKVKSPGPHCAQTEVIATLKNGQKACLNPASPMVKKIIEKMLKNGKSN

[6] = molecular target: T6, CXCL1_HUMAN (human, UniProt P09341 35-107)
T6 sequence: T5 sequence with P2S, L3V, L20P, K27N, Q48R, M58I, K68N, N69S, G70D

[7] = molecular target: T7, CXCL7_HUMAN (human, UniProt P02775 59-128)
T7 sequence: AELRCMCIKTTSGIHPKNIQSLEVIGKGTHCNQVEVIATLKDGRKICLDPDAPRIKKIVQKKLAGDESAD

[8] = molecular target: T8, CXCL14_HUMAN (human, UniProt O95715 35-111)
T8 sequence: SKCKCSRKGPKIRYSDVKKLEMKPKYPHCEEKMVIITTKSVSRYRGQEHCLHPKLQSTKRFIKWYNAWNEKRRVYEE

[9] = molecular target: T9, CXCL10_HUMAN (human, UniProt P02778 22-98)
T9 sequence: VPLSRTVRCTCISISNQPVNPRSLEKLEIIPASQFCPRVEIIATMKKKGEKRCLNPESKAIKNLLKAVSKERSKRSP

[10] = molecular target: T10, CXCL5_HUMAN (human, UniProt P42830 41-114)
T10 sequence: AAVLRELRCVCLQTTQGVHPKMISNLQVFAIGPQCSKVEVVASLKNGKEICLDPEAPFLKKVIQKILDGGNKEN

[11] = molecular target: CXCL12_HUMAN (human, UniProt P48061 22-89)
Chain of CXCL12_HUMAN (P48061 22-89 limits assumed): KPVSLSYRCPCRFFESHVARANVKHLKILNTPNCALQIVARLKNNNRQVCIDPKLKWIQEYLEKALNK

B1: P1243:G4S:P1156 (designed binder)
chain: RNHTEDNSTEYYDYEEARCACPARHLNNTNGTVLKLLGCHYFCNGTLCTAPDGYPCYNLTAQQVRTLTTYPNTSCAVGVCMKGTCVKNGTMEQCFKTPGGGGSADDDNELFTVQYCGMNCTKDEGGTWTGCTGKKEGCKCYHESGKNYGLCLSTEYTDFSQYGNPSDSEIEAAKPKRSDTLSH
**Q.** Does B1 bind [1]?
**A.** no binding (tested: 300 nM)

**Q.** Does B1 bind [2]?
**A.** no binding (tested: 300 nM)

**Q.** Does B1 bind [3]?
**A.** no binding (tested: 300 nM)

**Q.** Does B1 bind [4]?
**A.** no binding (tested: 300 nM)

**Q.** Does B1 bind [5]?
**A.** no binding (tested: 300 nM)

**Q.** What about the Kd [6] of the same binder?
**A.** 17.4 nM

**Q.** Does B1 bind [7]?
**A.** no binding (tested: 300 nM)

**Q.** Does B1 bind [8]?
**A.** no binding (tested: 300 nM)

**Q.** Does B1 bind [9]?
**A.** no binding (tested: 300 nM)

**Q.** Does B1 bind [10]?
**A.** no binding (tested: 300 nM)

**Q.** Does B1 bind [11]?
**A.** no binding (tested: 300 nM)
